Assay: yeast display, Sf9 membrane polyspecificity reagent, FACS + sequencing; frameworks hold sequencing errors
How it was run: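 Galactose-induced (36–48 hours) yeast carrying a synthetic nanobody display library were exposed to 10% biotinylated, detergent-solubilized Sf9 membrane reagent at 4 °C for 1 hour. FACS followed streptavidin microbead enrichment, using low and high (top ~1%) gates for expression (anti-HA) and reagent binding (streptavidin). Colony PCR, MiSeq 2 × 250 sequencing and CDR-length filtering followed. Labels for polyreactivity reflect the gate of origin.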

Sequence: QGQLVESGGGLVQAGGSLRLSCAASGTTFTKYAMGWYRPAPGKERELVATISQSSGRTYYADSVKRRFTISRDNAKNTVYLQMNTLKPEDTAVYYCAARYGYAVYYYGTPVRRYYYWGQGTQVTVSS
- polyreactivity (PSR sort gate): high polyreactivity

Sequence: QVQLQESGGGLVQAGGSLRRSCAASGSIFYHWAMGWYRQTPGKERELVASITSGGNTNYADSVKGRFTISRDNAKNTVYLPMDRLKPEDTAVYYCAADGYYGAWDLEYYYWGQGTQVTVSS
- polyreactivity (PSR sort gate): low polyreactivity

Sequence: QVQLVESGGGLVQAGGSLRLSCAASGSIFYYNAMGWYRQAPGKERELVATITQSGGGRTYYADSVKGRFTISRDNAKNTVYLQMNSLKPEDTAVYYCAAKPDKYKSYRYGYWGQGTQVTVSS
- polyreactivity (PSR sort gate): low polyreactivity

Sequence: QVQLVESGGGLVQAGGSLRLICAASGSTFEAYAMGWYRQAPGKDSELVAAIRSSGSTSYADSVKGRFTISRDNAKNTVYLQMKSLKPEDTALYYGAARVRGYPRYKRDYWGQGTQVTVSS
- polyreactivity (PSR sort gate): high polyreactivity

Sequence: QVQLVESGGGLVQAGGSLRLSCAASGLIFYNYAMGWYRQAPGKERELVAAISSGGSTYYADSVKGRFTISRDNAKNTVYLQMNSLKPEDTAVYYCAASGPGYSRYTQYDSWGQGTQVTVSS
- polyreactivity (PSR sort gate): high polyreactivity

Sequence: QVHLVESGGGLVQAGGSLRLICAASGFTFAVYAMGWYRQAPGKERELVAAISRSSGRTYYADSVKGRFTISRDNAKNTVYLQMNSLKPEDTAVYYCNARRGSPAPYDYWGQGTQVTVSS
- polyreactivity (PSR sort gate): high polyreactivity

Sequence: QVKLVDSGGGLVQAGGSLRLSCAASGSIFAGYAMGWYRQEPGKVRELVAAINASGGSTYYADSVKGRFTISRDNAKNTVYLQMNSLKPEDTAVYYCNRVYKRYYIGGYDYWGQGTQLTVSS
- polyreactivity (PSR sort gate): high polyreactivity

Sequence: QVQLVESGGGLVQAGGSLRLSCAASGSTSKGYAMGGYRQAPGKDRELVAAISAGGGRTYYADSVKGRFTISRENAKNTVYLQMNSLKPEDTAVYYCANAGTIYQSPREYWGQGTQVTVSS
- polyreactivity (PSR sort gate): high polyreactivity

Sequence: QVHLVESGGGLVQAGGSLRLTCAASGLTFIRYAMGCYRQAPGKERELVAAISSYGGTTYYADSVKGRFTISRDKAKNTVYLQMISLKPEDTSVYYCAAVLTYYRGSTWTFSGFAYDHWGQGTQVTVSS
- polyreactivity (PSR sort gate): high polyreactivity

Sequence: QVQLVESGGGLVKAGCSLRLSCAASGFTFGRYAMGWYRQAPGKERELVAAISRTGGRTYYADSVKGRFTISRDNAKNTVYLQMNSLKPEDTAVYYCAADKGGTYFNGDSWGQGTQVTVSS
- polyreactivity (PSR sort gate): high polyreactivity

Sequence: QVQLVESGGGLVQAGGSLRLICAASGSTIGTNAMGWYRQAPGKERELVAAISRSGGRTYYADSVKGRFTISRDNAKNTVYLQMNSLKPEDTAVYYCAKAGLYTEYDYWGQGTQVTVSS
- polyreactivity (PSR sort gate): high polyreactivity

Sequence: QVQLVESGGGLVQAGGSLSLSCAASGFTFSWNAMGWYSQAPGKERELVATITRSGSTYYADSVKGRFTISRDNSKNTVYLQMNSLKPEDTAVYYCAVVSWYRYSRYVNDYWGQGTQVTVSS
- polyreactivity (PSR sort gate): high polyreactivity

Sequence: QVQLVESGGGLLQAGGSLRLSCAASGIFGRYAMGWYRQAPGKERELVAGISWSGVRTYYADSVKGRFTISRDNAKNTVYLQINSLKPEDTSVYYCPARPWNDGYYVGRFHMDYWGQGTQVTVSS
- polyreactivity (PSR sort gate): low polyreactivity

Sequence: QVQLVESGGGLVQAGGSLRLSCAASGLIFSTYAMGWYRQAPGKERELVASISSSGGSTYYADSVKGRFTISRDNAKNTVYLQMNSLKPEDTAVYYCAAVTKRYQPTYYITYGYWGQGTQVTVSS
- polyreactivity (PSR sort gate): high polyreactivity

Sequence: QVQLVESGGGLVQAGGSLRLSCAASGSTFWANAMGWYRQAPGKERELVAGITWNAGSTYYADSVKGRFTISRDYAKNNVYFQMNSLNPEDTAVDYCAAYYHFQGWGPGYNSWGQGTQVTVSS
- polyreactivity (PSR sort gate): low polyreactivity

Sequence: QVQLVESGGGLVQAGGSLRLSCAASGRIVEGNVMGWYRQAPGKERELVAGISSGGSTTYADSVKGRFTISRDNAKNTVYLQMNSLKPEDTAVYYCAASRKRFRHSSYRFYYCGQGTQVTVSS
- polyreactivity (PSR sort gate): high polyreactivity

Sequence: QVQLVDSGGGLVQAGGSLRLSCAASGSTFLAYAMGSSRQAPGKQTELVAAITWNSCSSTFYADSVKGRFTISRDNAKNSVYLQMNSLKPEDTAVYYCNADVPSPAYYGDGTPYREDNYWGQGTQVTVSS
- polyreactivity (PSR sort gate): low polyreactivity

Sequence: QVQLVESGGGLVQAGGSLRLSCAASGITFYPYAMGWYRQAPGTERELVAAITGSGGRTYYADSVKGRFTISRDNAKNTVYLQMNSLKPEDTAVYYCAKVARYPDMGYWGQGTQVTVSS
- polyreactivity (PSR sort gate): high polyreactivity

Sequence: QVQLVESGGGLVQAGGTLRLSCAASGSTFPPYAMGWYRQAPGKERELVAAISWRGSSTYYADSVKGRFTISRDNAKNTVYLQMNSLKPEDTAVYYCNADGGGSYWLYEHGFARDYWGQGTQVTVSS
- polyreactivity (PSR sort gate): high polyreactivity

Sequence: QVQLVESGGGLVQSGGSLRLSCAASGFTFYFNAMGWYRPAPGKERELVAAIRWSGGNTYYADSVKGRFTISRDNAKNTVYLQMNSLKPEDTAVYYCNKDPWHDTYSVKEYDYWGQGTQVTVSS
- polyreactivity (PSR sort gate): low polyreactivity

Sequence: QVQLVESGGGLVQAGGRLRLSCAASGSTFGFNAMGWSREAPGKERELVAASNDSGGDTYYADSVKGRFTSSRDNAKNTVYLQMNSLKPEDTAVYYCAADEPSSVYGILVELEYWGQGTQVTVST
- polyreactivity (PSR sort gate): high polyreactivity

Sequence: QVQLVESVGGLVLAGGSLRLSCAASGFTFPRYVMGSYRPAPGKAREFVAAITFSGGSTYYADSVKGRFTIARDNAKNTVYLQMNSLKPEDTAVYYCAAGASLWRLGLKRGYWGQGTQVTVSS
- polyreactivity (PSR sort gate): low polyreactivity

Sequence: QVQLVESGGGLVQAGGSLRLSCAASGLIFPRYGMGWYRQAPGKERELVAAISWSGGSTYYADSVKGRFTISRDNAKNTVYLQMNSLKPEDTAVYYCAVLSNRGVYGSDYWGQGTQVTVSS
- polyreactivity (PSR sort gate): high polyreactivity

Sequence: QVQLVESGGGLVQAGGSLRLSCAASGRTFWYNAMGWYRQAPGKEREFVAAIRWTTGSTYYADSVKGRFTISRDNAKNTVYLQMNSLKPEDTAVYYCAASLYPVRRDYWGQGTQVTVSS
- polyreactivity (PSR sort gate): high polyreactivity

Sequence: QVQLVESGGGLVQAGGSLRLSCAASGIIFIHYTMGWYRQAPGKERELVAAISWSGGSTYYADSVKGRFTISRDNAKNTVYLQMNSLKPEDTAVYYCAADYIFYHRMYYWGQGTQVTVSS
- polyreactivity (PSR sort gate): high polyreactivity

Sequence: QVQLVESGGGLVQAGGSLRLSCAASGRIFDWNVMGWYRQAPGKERELVAVINDSTGTTYYADSVKGRFTISRDNAKNTVYLQMNSLKPEDTAVYYCSADWSVFTYFYGYDYWGQGTQVTVSS
- polyreactivity (PSR sort gate): low polyreactivity

Sequence: QVHLVESGGGLVQAGGSLRLSCAASGSIIGLYAMGWYRQAPGKERELVAYITGGGSTYYADSVKGRFTISRDIAKNTVYLQMNSLKPEDTAVYYCNKRGTEIGYDYWGQGTQVTVLS
- polyreactivity (PSR sort gate): low polyreactivity

Sequence: QVQLVESGGGLVQAGGTLRLSCAASGSTFRWYAMGWYRQAPGKERELVAAITSSGSTYYADSVKGRFTISRDNAKNTVYLQMNSLKPEDTAVYYCAARAKGYWNTYEHDSWGQGIQVTVSS
- polyreactivity (PSR sort gate): low polyreactivity

Sequence: QVQLVESGGGLVQAGGSLRLSCAASGFIFGLYAMGWYRQAPGKERELVAAISRRGGSTYYADSVKGRFTISLDNAKNTVYLQMNSLKPEDTAVYYCATDHSYIDDWGQGTEVTVSS
- polyreactivity (PSR sort gate): high polyreactivity

Sequence: QVQLVESGGGLVQAGGSLRLSCAASGNIFYVYVMGWYRQAPGKERELVAAISRGGGSTYYADSVKGRFTISRDNAKNTVSLQMNSLKPEDTAVYYCAARRGYPSGYEYWGQGTQVTVSS
- polyreactivity (PSR sort gate): high polyreactivity

Sequence: QVQLVESGGGLVQAGGSLRLSCAASGRIFSGYAMGWYRQAPGKERELVAAISQRGGSTTYADSVKGRFTISRDNAKNTVYLQMNSLKPEDTAVYYCAKRYTYPSGYDYWGQGTQVTVSS
- polyreactivity (PSR sort gate): low polyreactivity

Sequence: QVQLVESGGGLVQAGGSLRLSCAASGRTFSRYTMGWYRQAPGKEREFVAAIDRGGGTTYYADSVKGRFTISRDNAKNTVYLQMNSLKPEDTAVYYCAAERNYWSTQYYYWGQGTQVTVSS
- polyreactivity (PSR sort gate): high polyreactivity

Sequence: QVQLVESGGGLVQAGGSLRLSCAASGSTFTYYAMGWYRQAPGKERELVAAITGRGGRTYYADSVKGRFTISRDNAKNSVYLQMNSLKREDTAVYYCNTVGLNYGYQYSNGYWGQGSQVTVSS
- polyreactivity (PSR sort gate): high polyreactivity

Sequence: QVQLVESGGGLVQAGGSLRLSCAASGITFYGNAMGWYRQAPGKERELVAAITASGGRTYYADSVKGRFTISRDNAKNTVYLQMNSLKPEDTAVYYCAAKKATVVYRMEYWGQGTQVTVSS
- polyreactivity (PSR sort gate): high polyreactivity

Sequence: QFQLVESGGGLVQAGGSLRLSCAASGRTFGVYAMGWYRQAPGKERELVAAIRWSGGGTYYADSVKGRFTISRDNAKNTVYLQMNSLKPEDTAVYYCAADSLLVLFDYWGQGTQVTVSA
- polyreactivity (PSR sort gate): low polyreactivity

Sequence: QVQLVESGGGLVQAGGSLRLSCAASGRTFRINAMGWYRQAPGKERELVAAITRGDTNYADSVKGRFTISRDNAKNTVYLQMNSLKPEDTAVYYCNAELSFRYPVFRELDYWGQGTQVTVSS
- polyreactivity (PSR sort gate): low polyreactivity

Sequence: QVQLVESGGGLVQAGGSLRLSCAASGSIFRFNAMGWYRQAPGKERELVAAISDSGGRTYYADSVKGRFTISRDNAKNTVYLQMNSLKPEETAVYYCNAYVHSQGGDYWGQGTQVTVSS
- polyreactivity (PSR sort gate): high polyreactivity

Sequence: QVQLVESGGGLVQAGGSLRLSCAASGRTFGYYAMGWYRQAPGKERELVAAISRGGRTNYADSVKGRFTISRDNAKNTVYLQMNSLKPEDTAVYYCAKSGTIPRYTASYSLLDYWGQGTQVTVSS
- polyreactivity (PSR sort gate): low polyreactivity

Sequence: QVQLVESGGGLVQAGGSLRLSCAASGSIFWPYAMGWYRQAPGKEREFVDAITWSGGSTYYADSVKGRFTISRDNAKNTVYLQMNSLKPEDTAVYYCAAVPYTRWKGADGDYWGQGTQVTVSS
- polyreactivity (PSR sort gate): high polyreactivity

Sequence: QVQLVESGGGLVQAGGSLRLSCAASGGTIRVYAMRWYRQAPGKERELVAAITGRGGSTYYADSVKGRFTISRDNAKNTVYLQMNSLKPEDTAVYYCAKDPVTTYYKYDYWGQGTQVTVSS
- polyreactivity (PSR sort gate): low polyreactivity

Sequence: QVQHVESGGGVVQGGGSLRLSCAASLSIFYIYAMGWYRQAPGTERELVAAITRSGGSTNYADSVTGPFTFSRDNATNTVYLQMTSLQPEDTAVYYCAAAVGRPYTPTYDYWGQGTKVTVSS
- polyreactivity (PSR sort gate): low polyreactivity

Sequence: QVQLQESGGGLVQAGGSLRLSCAASGSIFHLHIMCWYRQAPGKERESVAAISYGTSTYYADSVKGRFTICRDNAKNTLYLQMNSPKPDDTAVYYCAALFLVSKHHHYWGEGTQVTVSS
- polyreactivity (PSR sort gate): low polyreactivity

Sequence: QVQLVESGGGLVQAGGSLRLSCAASGFTFEENAMGWYRQAPGINYSGASTYYADSVKGRFTISRDKAKNTVYLQMNSLKPDDTAVYYCAADVVAQMNYWGQGTQVTVSS
- polyreactivity (PSR sort gate): low polyreactivity
